Experiments:
[1] = biological target: Murine APRIL (K104-L241) thioredoxin fusion protein (murine) (UniProt Q9D777); experiment: competitive displacement ELISA on immobilized APRIL; unlabeled baculovirus BCMA varied, tracer biotinylated baculovirus BCMA
[2] = biological target: Murine APRIL (K104-L241) thioredoxin fusion protein (murine) (UniProt Q9D777); experiment: competitive displacement ELISA on immobilized APRIL; unlabeled baculovirus BCMA varied, tracer biotinylated BCMA-Z
[3] = biological target: Murine APRIL (K104-L241) thioredoxin fusion protein (murine) (UniProt Q9D777); experiment: competitive displacement ELISA; immobilized APRIL, tracer biotinylated BCMA-Z
[4] = biological target: Murine APRIL (K104-L241) thioredoxin fusion protein (murine) (UniProt Q9D777); experiment: competition ELISA; immobilized APRIL, tracer biotinylated BCMA-Z
[5] = biological target: Murine APRIL (K104-L241) thioredoxin fusion protein (murine) (UniProt Q9D777); experiment: SPR (BIAcore 3000), APRIL immobilized, 1:1 model
[6] = biological target: Murine APRIL (K104-L241) thioredoxin fusion protein (murine) (UniProt Q9D777); experiment: competitive displacement ELISA on immobilized APRIL; unbiotinylated BCMA-Fc varied, tracer biotinylated BCMA-Z

Sequence of BCMA-Fc (Q02223 5-51): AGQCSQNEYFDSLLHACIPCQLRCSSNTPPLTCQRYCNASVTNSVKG
Sequence of BCMA ECD purified from baculovirus expression (Q02223 4-53): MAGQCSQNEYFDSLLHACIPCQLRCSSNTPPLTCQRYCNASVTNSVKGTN

“BCMA ECD purified from baculovirus expression (from UniProt Q02223 4-53) (receptor)” was tested, and the IC50 (read off the curve) [1] was 20 nM and the IC50 (read off the curve) [2] was 10 nM.
“BCMA-Fc (from UniProt Q02223 5-51) (Fc fusion)” was tested, and the IC50 [3] was 5 nM, the IC50 [4] was 7 to 10 nM and the Kd [5] was 0.2 nM. For the same substance, the kon [5] was 3.12e+06 M⁻¹ s⁻¹ and the IC50 (read off the curve) [6] was 7 nM.

— patent US20070249530A1
